From patent US20220233705A1, “COMBINED THERAPIES OF ACTIVATABLE IMMUNE CHECKPOINT INHIBITORS AND CONJUGATED ACTIVATABLE ANTIBODIES” (CYTOMX THERAPEUTICS, INC., priority 2019, published 2022)

Legend:
dendritic cells (MoDCs) = assay: Dendritic cell maturation markers by flow cytometry; assay type: cell-based, human; design: dose or concentration left out as unconfirmed; conditions: 48 hours, compared to untreated cells
Method: In this study, dendritic cells were cultured with […] anti-CD166 antibody conjugated to DM4 (CD166-DM4 ADC) or a dendritic cell maturation cocktail (Stem Cell Technology DC maturation kit (#10989)) for 48 hours. […] The MoDCs were then assessed for maturation by flow cytometric measurement of dendritic cell maturation markers CD80 (2D10 antibody, BioLegend), CD83 (HB15e antibody, BioLegend), HLA-DR (L243 antibody, BioLegend), and CD86 (IT2.2 antibody, BioLegend).

A375 cells = assay: Immunogenic cell death markers in A375 cells; assay type: cell-based, human; conditions: A375, 48 hours; for secreted HMGB1: ELISA
Method: (§1) ICD can be measured by markers such as the expression of calreticulin on the surface of cancer cells and secretion of HMGB1. In this exemplary study, A375 cells (ATCC) derived from a human malignant melanoma were cultured in RPMI-1640™ medium with 10% (v/v) fetal bovine serum for 48 hours in the presence of the indicated amount of drug. HCC1806 cells (ATCC) derived from human breast carcinoma were cultured in DME medium for 48 hours in the presence of the indicated amount of drug. CT26 cells and CT26 huCD166 cells (CT26 cells expressing human CD166 polypeptide as discussed herein) were cultured in RPMI-1640™ medium with 10% (v/v) fetal bovine serum for 72 hours in the presence of the indicated amount of drug. Following incubation, calreticulin expression was detected by flow cytometry using a FITC conjugated calreticulin antibody (Novus Bio, clone 1G6A7; #NBP1-47518F). HMGB1 protein was detected by ELISA (Tecan HMGB1 ELISA kit, #NC9959947).

HCC1806 cells = assay: Immunogenic cell death markers in HCC1806 cells; assay type: cell-based, human; conditions: HCC1806, 48 hours; for secreted HMGB1: ELISA
Method: as §1

CT26 cells = assay: Calreticulin surface expression on CT26 cells; assay type: cell-based, mouse; conditions: CT26, 72 hours
Method: as §1

CT26 huCD166 cells = assay: Calreticulin surface expression on CT26 huCD166 cells; assay type: cell-based, mouse; conditions: CT26 huCD166, 72 hours
Method: as §1

[1] = test system: allogenic CD4+ T cells co-cultured with MoDCs; assay type: cell-based, human
activated human T cells = assay: Cytotoxicity towards activated T cells (CellTiter-Glo)
[2] = test system: human dendritic cells (MoDC); assay: Cytotoxicity towards fully activated MoDC (CytoTox-Glo); conditions: 48 hours

## COc1cc2cc(c1Cl)N(C)C(=O)C[C@H](OC(=O)[C@H](C)N(C)C(=O)CCC(C)(C)S)[C@]1(C)O[C@H]1[C@H](C)[C@@H]1C[C@@](O)(NC(=O)O1)[C@H](OC)/C=C/C=C(\C)C2 [free DM4, DM4, reference compound]
Dendritic cells (MoDCs)
  expression of CD83: slightly increased
  expression of CD86: slightly increased
A375 cells
  expression of calreticulin (CRT): increased expression
  secreted HMGB1: increased amounts
HCC1806 cells
  expression of calreticulin (CRT): increased expression
  secreted HMGB1: increased amounts
CT26 cells
  surface expression of calreticulin (CRT): increased surface expression
CT26 huCD166 cells
  surface expression of calreticulin (CRT): increased surface expression

B1: anti-CD166 ADC (conjugate)
VH: QITLKESGPTLVKPTQTLTLTCTFSGFSLSTYGMGVGWIRQPPGKALEWLANIWWSEDKHYSPSLKSRLTITKDTSKNQVVLTITNVDPVDTATYYCVQIDYGNDYAFTYWGQGTLVTVSS
VL: DIVMTQSPLSLPVTPGEPASISCRSSKSLLHSNGITYLYWYLQKPGQSPQLLIYQMSNLASGVPDRFSGSGSGTDFTLKISRVEAEDVGVYYCAQNLELPYTFGQGTKLEIK
Dendritic cells (MoDCs)
  expression of CD83: slightly increased
  expression of CD86: slightly increased
[1]
  production of IL-2 by allogeneic T cells: slightly increase
A375 cells
  expression of calreticulin (CRT): increased expression
  secreted HMGB1: increased amounts
HCC1806 cells
  expression of calreticulin (CRT): increased expression
  secreted HMGB1: increased amounts
CT26 cells
  surface expression of calreticulin (CRT): increased surface expression
CT26 huCD166 cells
  surface expression of calreticulin (CRT): increased surface expression
Activated human T cells; 72 hours treatment
  cytotoxic activity towards activated T cells: minimal cytotoxic activity
Activated human T cells; activated T cells, 72 hours
  doses at which cytotoxicity was observed: above 10 nM
[2]
  cytotoxic activity towards MoDCs: minimal cytotoxic activity
[2]; fully activated MoDC
  doses at which cytotoxicity was observed: above 10 nM
